Where two headings read alike, the source gives them in different places. Bounds are passed on as bounds.

The source of these data is article PMC6011876, “Characterization of the ATPase FlaI of the motor complex of the Pyrococcus furiosus archaellum and its interactions between the ATP-binding protein FlaH” (PeerJ, 2018).

For assay [1], the target named is Pyrococcus furiosus FlaI (Pyrococcus furiosus). Put plainly: SEC; Superdex 200 10/300 GL; 500 µl of protein at 1 mg/ml; 20 mM Tris HCl pH 8.0, 150 mM NaCl; no nucleotide added; fractions on SDS-PAGE. In general terms: SEC sorts molecules by how far they enter the pores of the column.
The target of a further assay is T1, Pyrococcus furiosus FlaH (Pyrococcus furiosus, fluorescently labeled (in the microscale thermophoresis)).
T1 chain: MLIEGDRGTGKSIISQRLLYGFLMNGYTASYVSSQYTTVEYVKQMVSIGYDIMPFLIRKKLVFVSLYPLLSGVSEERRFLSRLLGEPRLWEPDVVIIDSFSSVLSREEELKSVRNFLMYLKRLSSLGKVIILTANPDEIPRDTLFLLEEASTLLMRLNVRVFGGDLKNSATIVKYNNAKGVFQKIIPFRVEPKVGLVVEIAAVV
Put plainly: MST; 28 nM fluorescently labeled PfFlaH titrated with 1.3 nM-22.5 µM Pf-CTD or 5.6 nM-11.6 µM Pf-NTD; 20 mM Tris HCl pH 8.0, 150 mM NaCl, 0.05% Tween-20; Monolith NT.115 Pico; fitted to the Hill equation.

The target of assay [2] is T2, PfFlaI (Pyrococcus furiosus, UniProt Q8U3X0).
T2 construct: gene PF0331; full length, His-tagged, overexpressed in E. coli Rosetta (DE3), 64 kDa subunit, nucleotide-free homohexamer
Description: fluorescence titration (excitation […] nm, emission […] nm). It counts as binding. To be noted: 5 mM MgCl2, 20 mM Tris HCl pH 8.0, 150 mM NaCl; 20 °C; stoichiometric titration, two sites per hexamer; labelled compound.

Assay [3] addresses Pyrococcus furiosus FlaI (Pyrococcus furiosus).
Assay [4] shares this target. This is another data set of the same source.
Assay [5] deals with T2, PfFlaI. Put plainly: fluorescence competition against bound MANT-ATP. To be noted: 20 nM PfFlaI, 10 nM MANT-ATP; 5 mM MgCl2, 20 mM Tris HCl pH 8.0, 150 mM NaCl; 20 °C; Hill fit n = 0.67. It counts as binding.

T2 sequence (Q8U3X0 entry or part of it): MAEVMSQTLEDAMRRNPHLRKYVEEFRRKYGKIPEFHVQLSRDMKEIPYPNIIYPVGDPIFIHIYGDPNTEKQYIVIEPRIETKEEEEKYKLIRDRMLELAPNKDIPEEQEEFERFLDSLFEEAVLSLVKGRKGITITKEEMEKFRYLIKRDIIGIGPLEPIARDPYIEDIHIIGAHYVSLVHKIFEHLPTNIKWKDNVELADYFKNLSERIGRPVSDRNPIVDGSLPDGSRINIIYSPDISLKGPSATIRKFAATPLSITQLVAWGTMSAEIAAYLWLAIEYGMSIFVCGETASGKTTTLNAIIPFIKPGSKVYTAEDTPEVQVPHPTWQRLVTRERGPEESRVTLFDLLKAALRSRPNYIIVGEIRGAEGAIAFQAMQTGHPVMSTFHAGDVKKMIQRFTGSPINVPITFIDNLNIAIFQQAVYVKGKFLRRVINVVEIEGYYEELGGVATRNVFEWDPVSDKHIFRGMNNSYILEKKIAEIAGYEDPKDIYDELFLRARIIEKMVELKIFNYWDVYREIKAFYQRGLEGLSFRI

As a reminder, the stoichiometry N is a count of units in the complex or per binding partner. On to Pyrococcus furiosus FlaI (enzyme), for which, in assay [1], the stoichiometry N is 6.

What is called Kd is the constant that tells how readily two partners part at equilibrium. As to “N-terminal domain of Pyrococcus furiosus FlaI (domain or fragment)”, the Kd in the assay with Pyrococcus furiosus FlaH was above 8000 nM.

`CNc1ccccc1C(=O)O[C@H]1[C@@H](O)[C@H](n2cnc3c(N)ncnc32)O[C@@H]1COP(=O)(O)OP(=O)(O)OP(=O)(O)O` (mixture of isomers) [MANT-ATP, 2′-/3′-O-(N-methylanthraniloyl) adenosine 5′-triphosphate]: the “fluorescence titration (excitation 285 nm, emission 450 nm)” value on PfFlaI [2] was “only two of the ATP binding sites in the hexamer are available for binding of MANT-ATP”.

As for “Pyrococcus furiosus FlaH (natural protein)”, the ATPase activity at 70 °C of 1 µM PfFlaI with increasing concentrations of PfFlaH; ratio at maximal stimulation (PfFlaH per PfFlaI) in assay [3] was 1. Also, in assay [4], the ATPase activity of PfFlaI at 70 °C (malachite green) on addition of PfFlaH, proteins at 1 µM amounted to 2 fold.

A word on the IC50: it is the concentration at which inhibition is half-maximal. Higher therefore signals weaker potency. Molecule `Nc1ncnc2c1ncn2[C@@H]1O[C@H](COP(=O)(O)OP(=O)(O)OP(=O)(O)O)[C@@H](O)[C@H]1O` [ATP] registered an IC50 on PfFlaI [5] of 260 nM.

B1: C-terminal domain of Pyrococcus furiosus FlaI (domain or fragment)
chain: LSITQLVAWGTMSAEIAAYLWLAIEYGMSIFVCGETASGKTTTLNAIIPFIKPGSKVYTAEDTPEVQVPHPTWQRLVTRERGPEESRVTLFDLLKAALRSRPNYIIVGEIRGAEGAIAFQAMQTGHPVMSTFHAGDVKKMIQRFTGSPINVPITFIDNLNIAIFQQAVYVKGKFLRRVINVVEIEGYYEELGGVATRNVFEWDPVSDKHIFRGMNNSYILEKKIAEIAGYEDPKDIYDELFLRARIIEKMVELKIFNYWDVYREIKAFYQRGLEGLSFRI
Molecule B1 came in with a Kd with Pyrococcus furiosus FlaH (both partners purified) of 100 nM.
